Our source for the fluorescence value (FL2-H: PE; statistic not given) values is patent US20210163624A1.

For experiment [1], the target named is RMF peptide (…)/HLA-A0201 complex on the cell surface (human). As to the kind of experiment: flow cytometry, T2 cells pulsed with WT1 (RMF) peptide 50 ug/ml, control mAb at 1 (ug/ml by paragraph 199); secondary alone (T2-WT1-2AB) prints 18.
The target is the same in experiment [2]. As to the kind of experiment: flow cytometry, T2 cells pulsed with WT1 (RMF) peptide 50 ug/ml, control mAb at 10 (ug/ml by paragraph 199); secondary alone (T2-WT1-2AB) prints 18.
The target is the same in experiment [3]. The experiment can be described thus: flow cytometry, T2 cells pulsed with WT1 (RMF) peptide 50 ug/ml, control mAb at 0.01 (ug/ml by paragraph 199); secondary alone (T2-WT1-2AB) prints 18. A general note: Flow cytometry measures light scatter and fluorescence of single cells or particles in a stream.
For experiment [4] the target is unchanged. As to the kind of experiment: flow cytometry, T2 cells pulsed with WT1 (RMF) peptide 50 ug/ml, control mAb at 0.1 (ug/ml by paragraph 199); secondary alone (T2-WT1-2AB) prints 18.

Regarding Isotype control human IgG1 (antibody), the fluorescence value (FL2-H: PE; statistic not given) in experiment [1] turned out to be 37.9; in experiment [2] it was 31.1; in experiment [3], 31.8; in experiment [4], 29.5.
